Source: the supplement of paper PMC10065799, “High-throughput profiling of sequence recognition by tyrosine kinases and SH2 domains using bacterial peptide display” (eLife, 2023)
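Also: 11-residue human phosphosite peptides and single-mutation variants displayed on the E. coli surface, counted by deep sequencing, each peptide's frequency after selection divided by its frequency in the unselected input library; frequency after pTyr selection over input frequency; kinase dosed for 20-30% of maximal phosphorylation in three min.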

Each sequence was assayed against FGFR3 (UniProt P22607) (assay: phosphorylation enrichment, bacterial display (enrichment ratio); higher = better substrate or ligand; peptides without Tyr show the background).
Chain of FGFR3 (P22607 whole entry, looked up): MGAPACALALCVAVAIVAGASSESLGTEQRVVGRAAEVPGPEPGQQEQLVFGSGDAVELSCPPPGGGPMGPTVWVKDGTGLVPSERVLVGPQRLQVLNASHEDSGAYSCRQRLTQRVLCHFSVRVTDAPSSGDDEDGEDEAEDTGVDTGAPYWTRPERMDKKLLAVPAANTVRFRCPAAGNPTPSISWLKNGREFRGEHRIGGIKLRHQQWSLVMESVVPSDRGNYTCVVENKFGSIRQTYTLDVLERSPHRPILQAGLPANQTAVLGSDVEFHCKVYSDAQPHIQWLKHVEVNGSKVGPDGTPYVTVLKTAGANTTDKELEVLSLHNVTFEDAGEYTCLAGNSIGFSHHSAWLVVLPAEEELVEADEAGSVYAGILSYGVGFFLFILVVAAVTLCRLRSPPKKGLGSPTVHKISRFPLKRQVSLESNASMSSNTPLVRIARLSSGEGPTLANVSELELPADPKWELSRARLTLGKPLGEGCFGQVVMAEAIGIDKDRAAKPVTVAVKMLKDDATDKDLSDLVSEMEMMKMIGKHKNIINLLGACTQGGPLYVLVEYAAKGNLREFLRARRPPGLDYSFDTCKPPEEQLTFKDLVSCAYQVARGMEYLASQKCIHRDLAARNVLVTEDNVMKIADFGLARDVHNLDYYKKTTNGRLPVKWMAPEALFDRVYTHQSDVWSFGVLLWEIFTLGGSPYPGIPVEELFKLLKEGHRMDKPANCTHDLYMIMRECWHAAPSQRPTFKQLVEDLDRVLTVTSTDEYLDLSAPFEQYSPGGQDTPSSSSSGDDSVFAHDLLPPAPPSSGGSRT
In the case of FDSPFYQDSLP [TSC1_Y508_R509Q], the phosphorylation enrichment was 0.599.
HKANEYYPVVL [ADAMTS18_Y764] gave a phosphorylation enrichment of 15.7.
With GVMLLYYGRYN [ADGRD1_Y85_T82M] the phosphorylation enrichment was 0.6.
Work on SSSNPYSTVTM [ACTN2_Y599] yielded a phosphorylation enrichment of 0.486.
AEQEEYSAMRD [NRAS_Y64_G60E] gave a phosphorylation enrichment of 0.737.
With GKTQQYECKWF [BCR_Y751_D752E_YF] the phosphorylation enrichment was 0.627.
With RELGEYALAEF [ALDH1A3_Y492_YF] the phosphorylation enrichment was 0.784.
TYGQVYKGPHV [TNIK_Y40_R43P] gave a phosphorylation enrichment of 0.468.
RLGDLYKEEMR [VIM_Y150_E151K] showed a phosphorylation enrichment of 0.832.
EEKKKYYDAKI [CASP5_Y103_T106A] showed a phosphorylation enrichment of 0.518.
PTDSVYVMPTV [MYO7A_Y1668] was tested, and the phosphorylation enrichment was 1.68.
With NQDRTYYESVR [SPEN_Y632] the phosphorylation enrichment was 0.828.
With FSTDCYRVGGH [NTRK2_Y707_Y706C_YF] the phosphorylation enrichment was 0.638.
With KDQPDYKFQPR [SOX9_Y172_H169Q_YF] the phosphorylation enrichment was 0.529.
KSVLVYRNGDP [DCDC2_Y22] was tested, and the phosphorylation enrichment was 0.449.
For FTHSDYQFSQR [PKP2_Y166_YF], the phosphorylation enrichment was 0.646.
For ADRNHYRRFRR [YBX1_Y145_P149R_YF], the phosphorylation enrichment was 0.721.
Work on FARNSYVAGQY [G6PD_Y107] yielded a phosphorylation enrichment of 0.415.
In the case of FSEVRYMKEPY [HIPK4_Y170_V171M], the phosphorylation enrichment was 0.72.
With FFFDLYGGEKF [PTPN11_Y66_D61Y_YF] the phosphorylation enrichment was 0.534.
VYYGSYSCPYG [NKAP_Y104_R106C] was tested, and the phosphorylation enrichment was 2.87.
SSFSRYIMMPN [LEF1_Y114_G113R_YF] was tested, and the phosphorylation enrichment was 0.617.
In the case of LGSNTYPFLLT [SAG_Y120], the phosphorylation enrichment was 1.4.
DTLLEYLENPK [CYCS_Y68_M66L] was tested, and the phosphorylation enrichment was 0.828.
With AKAEICEMRPL [COX10_Y97_Y97C] the phosphorylation enrichment was 0.477.
Sequence IGEVVYQRAVM [GRIN2A_Y502] has a phosphorylation enrichment of 0.595.
With SFCFRYRCAAR [SUMF1_Y344_YF] the phosphorylation enrichment was 0.54.
In the case of LTFDEYRNNSQ [ANXA3_Y216_I219N], the phosphorylation enrichment was 0.632.
For RVLHNYLVWRV [ECEL1_Y400], the phosphorylation enrichment was 1.7.
SLVGCYNLTFM [HS6ST3_Y323] showed a phosphorylation enrichment of 0.95.
LKTNCYNNGKD [DNMT3B_Y404] gave a phosphorylation enrichment of 1.12.
TLERHYEELQA [SPTBN2_Y834] gave a phosphorylation enrichment of 0.677.
CTTIHYSFMCN [TP53_Y234_N235S_YF] showed a phosphorylation enrichment of 0.666.

These sequences were tested on Fer (mouse) in the same assay as above.
FDSPFYQDSLP [TSC1_Y508_R509Q] showed a phosphorylation enrichment of 2.88.
HKANEYYPVVL [ADAMTS18_Y764] showed a phosphorylation enrichment of 2.6.
GVMLLYYGRYN [ADGRD1_Y85_T82M] was tested, and the phosphorylation enrichment was 0.515.
SSSNPYSTVTM [ACTN2_Y599] gave a phosphorylation enrichment of 10.9.
In the case of AEQEEYSAMRD [NRAS_Y64_G60E], the phosphorylation enrichment was 0.469.
Work on GKTQQYECKWF [BCR_Y751_D752E_YF] yielded a phosphorylation enrichment of 0.572.
With RELGEYALAEF [ALDH1A3_Y492_YF] the phosphorylation enrichment was 0.699.
For TYGQVYKGPHV [TNIK_Y40_R43P], the phosphorylation enrichment was 0.398.
For RLGDLYKEEMR [VIM_Y150_E151K], the phosphorylation enrichment was 0.43.
With EEKKKYYDAKI [CASP5_Y103_T106A] the phosphorylation enrichment was 0.447.
Work on PTDSVYVMPTV [MYO7A_Y1668] yielded a phosphorylation enrichment of 0.77.
Work on NQDRTYYESVR [SPEN_Y632] yielded a phosphorylation enrichment of 0.993.
For FSTDCYRVGGH [NTRK2_Y707_Y706C_YF], the phosphorylation enrichment was 0.452.
KDQPDYKFQPR [SOX9_Y172_H169Q_YF] was tested, and the phosphorylation enrichment was 0.381.
KSVLVYRNGDP [DCDC2_Y22] gave a phosphorylation enrichment of 0.435.
Sequence FTHSDYQFSQR [PKP2_Y166_YF] has a phosphorylation enrichment of 0.594.
ADRNHYRRFRR [YBX1_Y145_P149R_YF] was tested, and the phosphorylation enrichment was 0.435.
Sequence FARNSYVAGQY [G6PD_Y107] has a phosphorylation enrichment of 0.347.
Work on FSEVRYMKEPY [HIPK4_Y170_V171M] yielded a phosphorylation enrichment of 0.437.
Work on FFFDLYGGEKF [PTPN11_Y66_D61Y_YF] yielded a phosphorylation enrichment of 0.418.
With VYYGSYSCPYG [NKAP_Y104_R106C] the phosphorylation enrichment was 1.59.
SSFSRYIMMPN [LEF1_Y114_G113R_YF] was tested, and the phosphorylation enrichment was 0.484.
With LGSNTYPFLLT [SAG_Y120] the phosphorylation enrichment was 0.793.
Sequence DTLLEYLENPK [CYCS_Y68_M66L] has a phosphorylation enrichment of 0.576.
In the case of AKAEICEMRPL [COX10_Y97_Y97C], the phosphorylation enrichment was 0.602.
Work on IGEVVYQRAVM [GRIN2A_Y502] yielded a phosphorylation enrichment of 1.46.
SFCFRYRCAAR [SUMF1_Y344_YF] was tested, and the phosphorylation enrichment was 0.472.
Sequence LTFDEYRNNSQ [ANXA3_Y216_I219N] has a phosphorylation enrichment of 0.553.
Sequence RVLHNYLVWRV [ECEL1_Y400] has a phosphorylation enrichment of 1.12.
SLVGCYNLTFM [HS6ST3_Y323] gave a phosphorylation enrichment of 1.29.
For LKTNCYNNGKD [DNMT3B_Y404], the phosphorylation enrichment was 0.68.
Sequence TLERHYEELQA [SPTBN2_Y834] has a phosphorylation enrichment of 1.7.
In the case of CTTIHYSFMCN [TP53_Y234_N235S_YF], the phosphorylation enrichment was 0.942.

What follows are sequences tested against Fes (UniProt P07332) in the same assay as above.
Chain of Fes (P07332 whole entry, looked up): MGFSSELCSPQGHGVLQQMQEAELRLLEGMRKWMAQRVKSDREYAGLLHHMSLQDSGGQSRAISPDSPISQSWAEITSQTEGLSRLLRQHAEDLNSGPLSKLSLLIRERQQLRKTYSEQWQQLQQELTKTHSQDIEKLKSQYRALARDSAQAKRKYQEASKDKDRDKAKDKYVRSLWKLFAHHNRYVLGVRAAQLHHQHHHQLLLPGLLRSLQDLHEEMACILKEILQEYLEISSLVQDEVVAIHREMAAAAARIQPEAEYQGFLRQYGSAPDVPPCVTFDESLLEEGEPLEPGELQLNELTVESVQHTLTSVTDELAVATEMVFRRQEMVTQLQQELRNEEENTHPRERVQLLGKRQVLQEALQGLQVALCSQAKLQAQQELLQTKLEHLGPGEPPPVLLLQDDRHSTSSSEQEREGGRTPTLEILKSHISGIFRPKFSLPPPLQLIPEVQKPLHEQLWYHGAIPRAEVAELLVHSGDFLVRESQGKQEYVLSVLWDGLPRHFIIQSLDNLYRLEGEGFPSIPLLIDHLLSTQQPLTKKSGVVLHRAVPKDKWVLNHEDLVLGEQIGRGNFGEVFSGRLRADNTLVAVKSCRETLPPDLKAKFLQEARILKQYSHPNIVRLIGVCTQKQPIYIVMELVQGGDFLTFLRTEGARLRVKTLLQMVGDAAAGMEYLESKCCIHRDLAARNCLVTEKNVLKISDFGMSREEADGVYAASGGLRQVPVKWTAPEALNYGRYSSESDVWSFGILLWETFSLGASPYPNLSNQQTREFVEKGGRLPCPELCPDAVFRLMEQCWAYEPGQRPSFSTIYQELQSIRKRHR
For FDSPFYQDSLP [TSC1_Y508_R509Q], the phosphorylation enrichment was 1.09.
With HKANEYYPVVL [ADAMTS18_Y764] the phosphorylation enrichment was 1.22.
GVMLLYYGRYN [ADGRD1_Y85_T82M] gave a phosphorylation enrichment of 1.24.
SSSNPYSTVTM [ACTN2_Y599] showed a phosphorylation enrichment of 0.751.
AEQEEYSAMRD [NRAS_Y64_G60E] was tested, and the phosphorylation enrichment was 1.26.
For GKTQQYECKWF [BCR_Y751_D752E_YF], the phosphorylation enrichment was 1.06.
RELGEYALAEF [ALDH1A3_Y492_YF] was tested, and the phosphorylation enrichment was 1.06.
For TYGQVYKGPHV [TNIK_Y40_R43P], the phosphorylation enrichment was 0.751.
For RLGDLYKEEMR [VIM_Y150_E151K], the phosphorylation enrichment was 1.17.
Work on EEKKKYYDAKI [CASP5_Y103_T106A] yielded a phosphorylation enrichment of 0.764.
Sequence PTDSVYVMPTV [MYO7A_Y1668] has a phosphorylation enrichment of 0.926.
NQDRTYYESVR [SPEN_Y632] showed a phosphorylation enrichment of 0.819.
In the case of FSTDCYRVGGH [NTRK2_Y707_Y706C_YF], the phosphorylation enrichment was 1.12.
KDQPDYKFQPR [SOX9_Y172_H169Q_YF] showed a phosphorylation enrichment of 0.678.
KSVLVYRNGDP [DCDC2_Y22] gave a phosphorylation enrichment of 0.617.
For FTHSDYQFSQR [PKP2_Y166_YF], the phosphorylation enrichment was 0.764.
ADRNHYRRFRR [YBX1_Y145_P149R_YF] was tested, and the phosphorylation enrichment was 0.561.
FARNSYVAGQY [G6PD_Y107] was tested, and the phosphorylation enrichment was 0.544.
Work on FSEVRYMKEPY [HIPK4_Y170_V171M] yielded a phosphorylation enrichment of 0.988.
With FFFDLYGGEKF [PTPN11_Y66_D61Y_YF] the phosphorylation enrichment was 0.979.
Work on VYYGSYSCPYG [NKAP_Y104_R106C] yielded a phosphorylation enrichment of 1.47.
SSFSRYIMMPN [LEF1_Y114_G113R_YF] was tested, and the phosphorylation enrichment was 0.806.
For LGSNTYPFLLT [SAG_Y120], the phosphorylation enrichment was 1.22.
With DTLLEYLENPK [CYCS_Y68_M66L] the phosphorylation enrichment was 1.25.
Sequence AKAEICEMRPL [COX10_Y97_Y97C] has a phosphorylation enrichment of 0.921.
With IGEVVYQRAVM [GRIN2A_Y502] the phosphorylation enrichment was 0.856.
With SFCFRYRCAAR [SUMF1_Y344_YF] the phosphorylation enrichment was 0.634.
For LTFDEYRNNSQ [ANXA3_Y216_I219N], the phosphorylation enrichment was 1.24.
RVLHNYLVWRV [ECEL1_Y400] was tested, and the phosphorylation enrichment was 1.93.
Work on SLVGCYNLTFM [HS6ST3_Y323] yielded a phosphorylation enrichment of 1.56.
In the case of LKTNCYNNGKD [DNMT3B_Y404], the phosphorylation enrichment was 1.21.
Sequence TLERHYEELQA [SPTBN2_Y834] has a phosphorylation enrichment of 1.06.
CTTIHYSFMCN [TP53_Y234_N235S_YF] showed a phosphorylation enrichment of 1.

What follows are sequences tested against Fyn (UniProt P06241) in the same assay as above.
Chain of Fyn (P06241 whole entry, looked up): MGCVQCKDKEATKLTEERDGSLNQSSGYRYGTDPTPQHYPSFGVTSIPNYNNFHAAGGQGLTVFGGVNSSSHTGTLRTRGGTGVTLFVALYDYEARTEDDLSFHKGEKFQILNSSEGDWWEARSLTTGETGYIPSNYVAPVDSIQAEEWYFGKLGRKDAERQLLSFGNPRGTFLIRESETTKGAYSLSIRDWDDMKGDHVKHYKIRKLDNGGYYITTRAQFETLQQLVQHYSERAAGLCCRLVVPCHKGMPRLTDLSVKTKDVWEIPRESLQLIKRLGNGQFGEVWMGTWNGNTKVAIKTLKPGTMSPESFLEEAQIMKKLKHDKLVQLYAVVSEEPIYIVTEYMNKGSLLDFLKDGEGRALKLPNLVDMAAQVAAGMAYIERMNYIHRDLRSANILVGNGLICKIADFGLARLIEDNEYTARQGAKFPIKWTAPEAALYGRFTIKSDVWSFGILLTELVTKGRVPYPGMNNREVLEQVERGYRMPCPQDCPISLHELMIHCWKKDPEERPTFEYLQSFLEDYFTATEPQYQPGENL
FDSPFYQDSLP [TSC1_Y508_R509Q] gave a phosphorylation enrichment of 0.482.
Sequence HKANEYYPVVL [ADAMTS18_Y764] has a phosphorylation enrichment of 0.956.
GVMLLYYGRYN [ADGRD1_Y85_T82M] showed a phosphorylation enrichment of 1.24.
SSSNPYSTVTM [ACTN2_Y599] was tested, and the phosphorylation enrichment was 0.976.
For AEQEEYSAMRD [NRAS_Y64_G60E], the phosphorylation enrichment was 0.458.
With GKTQQYECKWF [BCR_Y751_D752E_YF] the phosphorylation enrichment was 0.509.
With RELGEYALAEF [ALDH1A3_Y492_YF] the phosphorylation enrichment was 0.77.
Work on TYGQVYKGPHV [TNIK_Y40_R43P] yielded a phosphorylation enrichment of 12.4.
Work on RLGDLYKEEMR [VIM_Y150_E151K] yielded a phosphorylation enrichment of 0.756.
EEKKKYYDAKI [CASP5_Y103_T106A] was tested, and the phosphorylation enrichment was 0.371.
PTDSVYVMPTV [MYO7A_Y1668] showed a phosphorylation enrichment of 8.58.
Sequence NQDRTYYESVR [SPEN_Y632] has a phosphorylation enrichment of 1.4.
FSTDCYRVGGH [NTRK2_Y707_Y706C_YF] gave a phosphorylation enrichment of 0.545.
With KDQPDYKFQPR [SOX9_Y172_H169Q_YF] the phosphorylation enrichment was 0.382.
Work on KSVLVYRNGDP [DCDC2_Y22] yielded a phosphorylation enrichment of 0.426.
FTHSDYQFSQR [PKP2_Y166_YF] gave a phosphorylation enrichment of 0.63.
In the case of ADRNHYRRFRR [YBX1_Y145_P149R_YF], the phosphorylation enrichment was 0.57.
Sequence FARNSYVAGQY [G6PD_Y107] has a phosphorylation enrichment of 0.389.
Sequence FSEVRYMKEPY [HIPK4_Y170_V171M] has a phosphorylation enrichment of 0.36.
FFFDLYGGEKF [PTPN11_Y66_D61Y_YF] was tested, and the phosphorylation enrichment was 0.66.
VYYGSYSCPYG [NKAP_Y104_R106C] was tested, and the phosphorylation enrichment was 8.17.
In the case of SSFSRYIMMPN [LEF1_Y114_G113R_YF], the phosphorylation enrichment was 0.509.
LGSNTYPFLLT [SAG_Y120] showed a phosphorylation enrichment of 0.505.
With DTLLEYLENPK [CYCS_Y68_M66L] the phosphorylation enrichment was 0.493.
Sequence AKAEICEMRPL [COX10_Y97_Y97C] has a phosphorylation enrichment of 0.389.
With IGEVVYQRAVM [GRIN2A_Y502] the phosphorylation enrichment was 1.14.
SFCFRYRCAAR [SUMF1_Y344_YF] was tested, and the phosphorylation enrichment was 0.49.
With LTFDEYRNNSQ [ANXA3_Y216_I219N] the phosphorylation enrichment was 0.675.
With RVLHNYLVWRV [ECEL1_Y400] the phosphorylation enrichment was 0.867.
SLVGCYNLTFM [HS6ST3_Y323] was tested, and the phosphorylation enrichment was 0.694.
In the case of LKTNCYNNGKD [DNMT3B_Y404], the phosphorylation enrichment was 0.649.
In the case of TLERHYEELQA [SPTBN2_Y834], the phosphorylation enrichment was 0.541.
CTTIHYSFMCN [TP53_Y234_N235S_YF] gave a phosphorylation enrichment of 0.563.
